System: RecQ helicase (Escherichia coli)
Settings: single-molecule hairpin re-zipping blockage (magnetic tweezers); no ATP; Ftest 10 pN; non-specific binding along template

Q: “mechanically opened DNA hairpin (ssDNA template)” was tested. Which K half did it give?
A: 0.226 nM
